B1: Docking protein 1 (Mus musculus), P97465 (parent)
chain: MDGAVMEGPLFLQSQRFGTKRWRKTWAVLYPASPHGVARLEFFDHKGSSSRGGRGGSRRLDCKMIRLAECVSVVPVTVESPPEPGAVAFRLDTAQRSHLLAADAVSSTAWVQTLCRTAFPKGGWALAQTENQPKFSALEMLENSLYSPTWEGSQFWVTSQKTEASERCGLQGSYILRVEAEKLTLLTLGAQSQILEPLLFWPYTLLRRYGRDKVMFSFEAGRRCPSGPGTFTFQTSQGNDIFQAVEAAIQQQKAQGKVGQAQDILRTDSHDGETEGKTVPPPVPQDPLGSPPALYAEPLDSLRIPPGPSQDSVYSDPLGSTPAGAGEGVHSKKPLYWDLYGHVQQQLLKTKLTDSKEDPIYDEPEGLAPAPPRGLYDLPQEPRDAWWCQARLKEEGYELPYNPATDDYAVPPPRSPKPAPAPKPQGLILPESGTTRGSGSKGFSSDTALYSQVQKSGTSGAWDCGLSKVGNDRAGVKSEGST

Experimental findings from IntAct's records for PubMed 15148308 are described below.

The experiment covers variants of B1. Particulars: with nck1_mouse Nck1, Q99M51.
As to MDGAVMEGPLFLQSQRFGTKRWRKTWAVLYPASPHGVARLEFFDHKGSSSRGGRGGSRRLDCKMIRLAECVSVVPVTVESPPEPGAVAFRLDTAQRSHLLAADAVSSTAWVQTLCRTAFPKGGWALAQTENQPKFSALEMLENSLYSPTWEGSQFWVTSQKTEASERCGLQGSYILRVEAEKLTLLTLGAQSQILEPLLFWPYTLLRRYGRDKVMFSFEAGRRCPSGPGTFTFQTSQGNDIFQAVEAAIQQQKAQGKVGQAQDILRTDSHDGETEGKTVPPPVPQDPLGSPPALYAEPLDSLRIPPGPSQDSVYSDPLGSTPAGAGEGVHSKKPLYWDLYGHVQQQLLKTKLTDSKEDPIFDEPEGLAPAPPRGLYDLPQEPRDAWWCQARLKEEGYELPYNPATDDYAVPPPRSPKPAPAPKPQGLILPESGTTRGSGSKGFSSDTALYSQVQKSGTSGAWDCGLSKVGNDRAGVKSEGST [Y361F], the “effect of a mutation on the interaction” value is “disrupting interaction”.
